{"source": "paper PMC5618617", "about": "(International Journal of Molecular Sciences, 2017)", "binders": {"B1": {"name": "onartuzumab (huOA5D5.v2) (antibody, V domains shown)", "VH": "EVQLVESGGGLVQPGGSLRLSCAASGYTFTSYWLHWVRQAPGKGLEWVGMIDPSNSDTRFNPNFKDRFTISADTSKNTAYLQMNSLRAEDTAVYYCATYRSYVTPLDYWGQGTLVTVSS", "VL": "DIQMTQSPSSLSASVGDRVTITCKSSQSLLYTSSQKNYLAWYQQKPGKAPKLLIYWASTRESGVPSRFSGSGSGTDFTLTISSLQPEDFATYYCQQYYAYPWTFGQGTKVEIK", "notes": "second chain of the monovalent knob-into-hole format; Engineered monovalent (one-armed) antibody made with knob-into-hole technology; also called MetMab; source: Expi293 transient mammalian expression system, purified (HiTrap Mabselect SuRe); copies: 1 + 1 + 1"}, "B2": {"name": "IRCR201 single-chain variable fragment (scFv) (scFv, V domains shown)", "VH": "EVQLLESGGGLVQPGGSLRLSCAASGFTFSNYAMSWVRQAPGKGLEWVSGISYSGGSTYYADSVKGRFTISRDNSKNTLYLQMNSLRAEDTAVYYCAKASRSCQRPACSYANGMDVWGQGTLVTVSS", "VL": "QSVLTQPPSASGTPGQRVTISCTGSSSNIGNNYVTWYQQLPGTAPKLLIYYNNHRPSGVPDRFSGSKSGTSASLAISGLQSEDEADYYCGSWDYSLSAYVFGGGTKLTVL", "notes": "VH and VL as in m1; Detected with anti-HA-peroxidase; also called scFv of IRCR201; IRCR201 scFv; source: E. coli TOP10F', purified from bacterial lysates (Ni-NTA agarose)"}, "B3": {"name": "IRCR201 (antibody, V domains shown)", "VH": "EVQLLESGGGLVQPGGSLRLSCAASGFTFSNYAMSWVRQAPGKGLEWVSGISYSGGSTYYADSVKGRFTISRDNSKNTLYLQMNSLRAEDTAVYYCAKASRSCQRPACSYANGMDVWGQGTLVTVSS", "VL": "QSVLTQPPSASGTPGQRVTISCTGSSSNIGNNYVTWYQQLPGTAPKLLIYYNNHRPSGVPDRFSGSKSGTSASLAISGLQSEDEADYYCGSWDYSLSAYVFGGGTKLTVL", "notes": "CDR-H3 of 18 amino acids; IgG1; frameworks are not pointed to; also called IRCR201 IgG1; fully human bivalent anti-c-Met antibody; source: Expi293 transient mammalian expression system, purified (HiTrap Mabselect SuRe); copies: 2 + 2"}}, "conditions_in_all_cases": "both partners purified", "key": {"[1]": {"biological_target": "T1, human c-Met extracellular domain (ECD)-fragment crystallizable region (Fc) (human, UniProt P08581)", "T1 construct": "hepatocyte growth factor receptor (c-Met), human, extracellular domain; c-Met is naturally cut into alpha and beta chains; also called human c-Met ECD-Fc; recombinant human whole c-Met ECD-Fc; source: bought: Sino Biological, 10692-H03H", "experiment": "ELISA; competitive: recombinant human c-Met coated; pre-bound with or without 2.5 µg/mL HGF 1 h at room temperature; then IRCR201 or huOA5D5.v2 1 h; antibody detected with anti-human IgG F(ab')2-HRP"}, "[2]": {"biological_target": "T2, c-Met peptide G-7 (531–545) (Homo sapiens (Human)., cysteine pairing not given here)", "T2 construct": "c-Met, human, amino acids 531-545; source: synthetic peptide (JPT Peptide Technologies), on cellulose membrane", "T2 chain": "SAPPFVQCGWCHDKC-{cellulose support}", "experiment": "peptide or protein array; overlapping 15-mer peptides of c-Met 1-932, 5 nmol/spot, bound by the C-terminus to cellulose; scFv in 5% skim milk at 4 °C overnight; bound scFv electroblotted to PVDF and detected with anti-HA-peroxidase"}, "[3]": {"biological_target": "T3, c-Met peptide F-7 (527–541) (Homo sapiens (Human)., cysteine pairing not given here)", "T3 construct": "c-Met, human, amino acids 527-541; source: synthetic peptide (JPT Peptide Technologies), on cellulose membrane", "T3 chain": "SQCLSAPPFVQCGWC-{cellulose support}", "experiment": "peptide or protein array; overlapping 15-mer peptides of c-Met 1-932, 5 nmol/spot, bound by the C-terminus to cellulose; scFv in 5% skim milk at 4 °C overnight; bound scFv electroblotted to PVDF and detected with anti-HA-peroxidase"}, "[4]": {"biological_target": "T4, c-Met peptide E-7 (523–537) (Homo sapiens (Human)., cysteine pairing not given here)", "T4 construct": "c-Met, human, amino acids 523-537; source: synthetic peptide (JPT Peptide Technologies), on cellulose membrane", "T4 chain": "FQSCSQCLSAPPFVQ-{cellulose support}", "experiment": "peptide or protein array; overlapping 15-mer peptides of c-Met 1-932, 5 nmol/spot, bound by the C-terminus to cellulose; scFv in 5% skim milk at 4 °C overnight; bound scFv electroblotted to PVDF and detected with anti-HA-peroxidase"}, "bovine serum albumin": {"biological_target": "T5, bovine serum albumin (Bos taurus (Bovine)., UniProt P02769)", "T5 construct": "serum albumin, bovine; also called BSA", "experiment": "SPR; Biacore T100; human c-Met, mouse c-Met or BSA amine-coupled on a CM5 chip; different concentrations of purified IRCR201 injected"}, "[5]": {"biological_target": "T1, human c-Met extracellular domain …", "experiment": "SPR; Biacore T100; human c-Met, mouse c-Met or BSA amine-coupled on a CM5 chip; different concentrations of purified IRCR201 injected"}, "mouse c-Met ECD-Fc": {"biological_target": "T6, mouse c-Met ECD-Fc (Mus musculus, UniProt P16056)", "T6 construct": "hepatocyte growth factor receptor (c-Met), mouse, extracellular domain; source: bought: Sino Biological, 50622-M02H", "experiment": "SPR; Biacore T100; human c-Met, mouse c-Met or BSA amine-coupled on a CM5 chip; different concentrations of purified IRCR201 injected"}, "[6]": {"biological_target": "T7, human RON (recepteur d'origine nantais) ECD-Fc (Homo sapiens, UniProt Q04912)", "T7 construct": "RON receptor tyrosine kinase (macrophage-stimulating protein receptor), human, extracellular domain; The legend calls it ECD-Fc; the catalogue number's ending (H08H) may stand for a His-tagged product (surmise); also called human RON protein; source: bought: Sino Biological, 11608-H08H", "experiment": "ELISA; 0.1 µg antigen coated per well at 4 °C overnight, blocked with 3% skim milk; dilutions of IRCR201 1 h at room temperature; goat anti-human IgG F(ab')2-HRP"}}, "note": "No end group written: not given here. cellulose support = cellulose support (Whatman 50 cellulose membrane) to which the peptide C-terminus is covalently bound", "data": [{"binder": "B1", "values": [{"measurement": "binding result", "setting": "[1]", "value": "binds"}]}, {"binder": "B2", "values": [{"measurement": "binding result", "setting": "[2]", "value": "binds"}, {"measurement": "binding result", "setting": "[3]", "value": "binds"}, {"measurement": "binding result", "setting": "[4]", "value": "binds"}]}, {"binder": "B3", "values": [{"measurement": "binding result", "setting": "bovine serum albumin", "value": "no binding"}, {"measurement": "Kd", "setting": "[5]", "value": 0.721, "unit": "nM"}, {"measurement": "koff", "setting": "[5]", "value": 0.00304, "unit": "s⁻¹"}, {"measurement": "kon", "setting": "[5]", "value": "4.23e+06", "unit": "M⁻¹ s⁻¹"}, {"measurement": "Kd", "setting": "mouse c-Met ECD-Fc", "value": 0.845, "unit": "nM"}, {"measurement": "koff", "setting": "mouse c-Met ECD-Fc", "value": 0.00323, "unit": "s⁻¹"}, {"measurement": "kon", "setting": "mouse c-Met ECD-Fc", "value": "3.83e+06", "unit": "M⁻¹ s⁻¹"}, {"measurement": "binding result", "setting": "[6]", "value": "no binding"}]}]}
